Source: the nanobody polyreactivity screen of Harvey et al. (2022)

Assay: yeast display, Sf9 membrane polyspecificity reagent, FACS + sequencing; frameworks hold sequencing errors
Outline: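 Genes from sorted yeast were amplified by colony PCR, read by MiSeq 2 × 250 sequencing and filtered on CDR length. These cells carried a synthetic nanobody library in Saccharomyces cerevisiae BJ5465 and were sorted by FACS into low and high (top ~1%) gates on anti-HA and streptavidin fluorescence. Polyreactivity is labelled according to the gate of origin.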

Which “polyreactivity (PSR sort gate)” value does the source give for “QVQLVESGGGLVQAGGSLRLSCAASGRTFPYYVMGWYRQAPGKERELVAAINSGGRTNYADSVKGRFTISRDNAKNTVYLQMNSLKPEETAVYYCTKRGHPARLGYYYWGQGTQVTGSS” here?
Its value is “low polyreactivity”.

Which “polyreactivity (PSR sort gate)” value does the source give for “QVQLVESGGGLVQAGGSLRLSCAASGRTFQDNAMVWYRQAPGKEREFVAAINNSGGNTYYADSVKGRFTISRDNAKNTVYLQMNSLKPEDTAVYYCNARHTWHQTYDYWGQGTQVTVSS” here?
The value was “low polyreactivity”.

For “QVQLVESGGGLVQAGGSLRLSCAASGRTFQFYTMGWYRQAPGKERELVAVITVSSAATFYADTVKGRFTISRDNAKNTVSLQMNSLKPEDTAVYYCAAGLVLIVGMDSWGQGTQVTVSS”, which “polyreactivity (PSR sort gate)” value is on record?
The value was “low polyreactivity”.

Which “polyreactivity (PSR sort gate)” value does the source give for “QVQLVESGGGLVQAGGSLRLSCAASGRTFQINAMGWYRQAPGKERELVAAITWSGGSTYYADSVKGRFTISRDNAKNTVYLQMNSLKPEDTAVYYCNKRYRAYATLNLIAGYNYWGQGTQVTVSS” here?
Its value is “low polyreactivity”.

Which “polyreactivity (PSR sort gate)” value does the source give for “QVQLVESGGGLVQAGGSLRLSCAASGRTFQNYAMGWYRQAPGKERELVADITSGGSTYADSVKGRFTISRDNAKNTVYLQMNSLKPEDTAVYYCNADRTYPEPAEYYYWGQGTQVTVSS” here?
Its value is “low polyreactivity”.

For “QVQLVESGGGLVQAGGSLRLSCAASGRTFQPYAMGWYRQAPGKERELVASISRSGGRTYYADSVKGRFTISRDNAKNTVYLQMNSLKPEDTAVYYCAADIPYTRSIKYYYWGQGTQVTVSS”, which “polyreactivity (PSR sort gate)” value is on record?
The value was “high polyreactivity”.

Which “polyreactivity (PSR sort gate)” value does the source give for “QVQLVESGGGLVQAGGSLRLSCAASGRTFQRYAMGWYRQAPGKERELVAAISRGGITYYADSVKGRFTISRDNAKNTVYLQMNSLKPEDTAVYYCAALYRYYHESSPFDYWGQGTQVTVSS” here?
The value was “high polyreactivity”.

With “QVQLVESGGGLVQAGGSLRLSCAASGRTFQRYAMVWYRQAPGKERELVPAITSRGGSTYYSDSVKGRFTISRDNAKNTVYLQMNSLKPEDTAVYYCNARSRRTLSEPQSEMDYWGQGTQVTVSS” as the sequence, how does the “polyreactivity (PSR sort gate)” value read?
The value was “high polyreactivity”.

Which “polyreactivity (PSR sort gate)” value does the source give for “QVQLVESGGGLVQAGGSLRLSCAASGRTFQWYTMGWYRQAPGKERELVAAISLSGTSTYYADSVKGRFTISRDNAKNTVYLQMNSLNPEDTAVYYCAAEDIGRYYRLDYWGQGTQVTVSS” here?
Its value is “low polyreactivity”.

Which “polyreactivity (PSR sort gate)” value does the source give for “QVQLVESGGGLVQAGGSLRLSCAASGRTFQYNAMGWYRQAPGKEREFVAGITSIGGRTYYADSVKGRFTISRDNAKNTVYLQMNSLKPEETAVYYCAAVRGLAVGYDYWGQGTQVTVSS” here?
Its value is “high polyreactivity”.

Which “polyreactivity (PSR sort gate)” value does the source give for “QVQLVESGGGLVQAGGSLRLSCAASGRTFQYYAMGWYRQAPGKERELVAAISSGGSTYYADSVKGRFTISRDNAKNTVYLQMNSLKPEDTAVYYCTARWGYRRGYWGQGTQVTVSS” here?
Its value is “high polyreactivity”.

For “QVQLVESGGGLVQAGGSLRLSCAASGRTFQYYAVGWYRQAPGKERELVAAITSGGSTYYADSVKGRFTISRDNAKNTVYLQMNSLKPEDTAVYYCAAKRNVQLGYTVQSLYDYWGLGTQVTVSS”, which “polyreactivity (PSR sort gate)” value is on record?
The value was “low polyreactivity”.

For “QVQLVESGGGLVQAGGSLRLSCAASGRTFRAYAMGWYRQAPGKERELVAAITASGTSTYYADSVKGRFTISRDNAKNTVYLQMNSLKPEDTAVYYCARGSWRHFRLYGFDYWGQGTQVTVSS”, which “polyreactivity (PSR sort gate)” value is on record?
Its value is “low polyreactivity”.

For “QVQLVESGGGLVQAGGSLRLSCAASGRTFRENAMGWYRQAPGKERELVAAISWRAGSTYYADSVKGRFTISRDNAKNTVYLQMNSLKPEDTAVYYCAAKYTVSFYLWGTFNYWGQGTQVTVSS”, which “polyreactivity (PSR sort gate)” value is on record?
Its value is “high polyreactivity”.

Which “polyreactivity (PSR sort gate)” value does the source give for “QVQLVESGGGLVQAGGSLRLSCAASGRTFRFTAMGWYRQAPGKERELVAAISFRGGSTYYADSVKGRFTISRDNAKNTVYLQMNSLKPEDTAVYYCAARARTGTYRDMYYWGQGTQVTVSS” here?
Its value is “high polyreactivity”.

For “QVQLVESGGGLVQAGGSLRLSCAASGRTFRFYAMGWYRQAPGKERELVAAISSGGSTYYADSVKGRFTISRDNAKNTVYLQLNSLKAEDTAVYYCAVKQRDKFAGGRNDYWGQGTQVTVSS”, which “polyreactivity (PSR sort gate)” value is on record?
Its value is “high polyreactivity”.

For “QVQLVESGGGLVQAGGSLRLSCAASGRTFRFYAMGWYRQAPGKERELVAAISYSGGSTYYADSVKGRFTISRDNAKNTVYLQMNSLKPEDTAVYYCNARYRLGSPVGYNYYTGYDYWGQGTQVTVSS”, which “polyreactivity (PSR sort gate)” value is on record?
The value was “high polyreactivity”.

For “QVQLVESGGGLVQAGGSLRLSCAASGRTFRFYAMGWYRQAPGKERELVASISSSGGSTYYADSVKGRFTISRDNAKNTVYLQMNSLKPEDTAVYYCNADVTNWEDDYYYWGQGTQVTVSS”, which “polyreactivity (PSR sort gate)” value is on record?
Its value is “high polyreactivity”.

Which “polyreactivity (PSR sort gate)” value does the source give for “QVQLVESGGGLVQAGGSLRLSCAASGRTFRGNAMGWYRQAPGKERELVAAGGSTYYADSVKGRFTISRDNAKNTVYLQINSLKPEDTAVYYCAAALGFSRYSWFCYGYWGQGTQVTGSS” here?
The value was “low polyreactivity”.

With “QVQLVESGGGLVQAGGSLRLSCAASGRTFRGNAMGWYRQAPGKERELVAAISWRGTSTYYADSVKGRFTISRDNAKNTVYLQMNSLKPEDTAVYYCNTQRQLGERFYDRSRQGDYWGQGTQVTVSS” as the sequence, how does the “polyreactivity (PSR sort gate)” value read?
Its value is “high polyreactivity”.

With “QVQLVESGGGLVQAGGSLRLSCAASGRTFRGNAMGWYRQAPGKESELVAVITASGSTTYADSVKGRFTISRDNAKNTVYLQMNSLKPEDTAVYYCAKYVPWYTLWLGGTDRDYWGQGTQVTVSS” as the sequence, how does the “polyreactivity (PSR sort gate)” value read?
The value was “low polyreactivity”.

For “QVQLVESGGGLVQAGGSLRLSCAASGRTFRGYAMGWYRQAPGKERELVAAISSSGGRTYYADSVKGRFTISRDNAKNTVYLQMNSLKPEDTAVYYCAAAVTLSPAQYGYWGQGTQVTVSS”, which “polyreactivity (PSR sort gate)” value is on record?
The value was “high polyreactivity”.

For “QVQLVESGGGLVQAGGSLRLSCAASGRTFRGYAMGWYRQAPGKERELVAAITSGGSTNYADSVKGRFTISRDHAKNSVYLQMNSLKPEDTAVDYCNRDTSKYGLWRYIYDYWGQGTQVTVSS”, which “polyreactivity (PSR sort gate)” value is on record?
Its value is “low polyreactivity”.

Which “polyreactivity (PSR sort gate)” value does the source give for “QVQLVESGGGLVQAGGSLRLSCAASGRTFRGYAMGWYRQAPGKERELVAAITSSGGRTYYADSVKGRFTISRDNAKNTVYLQMNSLKPEDTAVYYCAKDYYSPRGYDYWGQGTQVTVSS” here?
The value was “high polyreactivity”.

With “QVQLVESGGGLVQAGGSLRLSCAASGRTFRGYSMGWYRQAPGKERELVAAISSSGGRTYYADSVKGRFTISRDNAKNTVYLQMNSLKPEDTAVYYCNAYYWSATWYFAAWDYYYWGQGTQVTVSS” as the sequence, how does the “polyreactivity (PSR sort gate)” value read?
Its value is “high polyreactivity”.

Which “polyreactivity (PSR sort gate)” value does the source give for “QVQLVESGGGLVQAGGSLRLSCAASGRTFRHYAMGWYRQAPGKEREFVAAISRSGGSTRYADSVKGRFTISRDNAKNTVYLQMNSLKPEDTAVYYCAATSRSYNDYDYWGQGTQVTVSS” here?
The value was “high polyreactivity”.

Which “polyreactivity (PSR sort gate)” value does the source give for “QVQLVESGGGLVQAGGSLRLSCAASGRTFRIYALGWYRQAPGTERELVATIDSGGSTNYADSVKGRFTISRDNAKNTVYFQMNSLKPEDTAVYYCNAEDKPWYYLAGQAEYDSWGQGTQVTVSS” here?
The value was “low polyreactivity”.

Which “polyreactivity (PSR sort gate)” value does the source give for “QVQLVESGGGLVQAGGSLRLSCAASGRTFRIYAMGWYRQAPGKERELVAAISRSSTSTYYADSVKGRFTISRDNAKNTVYLQMNSLKPEDTAVYYCAAVVTVQYSQPYDHWGQGTQVTVSS” here?
Its value is “high polyreactivity”.

With “QVQLVESGGGLVQAGGSLRLSCAASGRTFRIYAMGWYRQAPGKERELVASISWSGGSTYYADSVKGRFTISRDNAKNTVYLQMNSLKPEDTAVYYCAADYPFIALYDYWGQGTQVTVSS” as the sequence, how does the “polyreactivity (PSR sort gate)” value read?
The value was “low polyreactivity”.

With “QVQLVESGGGLVQAGGSLRLSCAASGRTFRKKAMGWYRRAPGKERELVAAISASGTSTYYADSVKGRFTNSRDNAKISVYLQMISLKPEDTAVYYCAARSYGIYDYWGQGSQVTVSS” as the sequence, how does the “polyreactivity (PSR sort gate)” value read?
The value was “high polyreactivity”.

With “QVQLVESGGGLVQAGGSLRLSCAASGRTFRKYAMGWSRQAPGKERELVAAINRGGTTKYADSVKGRFTISRDNAKNTVYLQMNSLKPEDTAVYYCNAAYGGVFFYAYDYWGQGTQVTVSS” as the sequence, how does the “polyreactivity (PSR sort gate)” value read?
Its value is “low polyreactivity”.
